In US20190041402A1 (GOVERNING COUNCIL OF THE UNIVERSITY OF TORONTO, published 2019):

Legend:
[1] = molecular target: T1, extracellular domain (ECD) of human αKlotho, amino acids E34-S981 with C-terminal 6-His tag (R&D Systems … (human, UniProt Q9UEF7 34-981)); test: SPR, Fab captured by anti-H+L antibody, αKlotho injected
T1 construct: range 34-981; also called αKlotho (aa34-981); target antigen
T1 sequence: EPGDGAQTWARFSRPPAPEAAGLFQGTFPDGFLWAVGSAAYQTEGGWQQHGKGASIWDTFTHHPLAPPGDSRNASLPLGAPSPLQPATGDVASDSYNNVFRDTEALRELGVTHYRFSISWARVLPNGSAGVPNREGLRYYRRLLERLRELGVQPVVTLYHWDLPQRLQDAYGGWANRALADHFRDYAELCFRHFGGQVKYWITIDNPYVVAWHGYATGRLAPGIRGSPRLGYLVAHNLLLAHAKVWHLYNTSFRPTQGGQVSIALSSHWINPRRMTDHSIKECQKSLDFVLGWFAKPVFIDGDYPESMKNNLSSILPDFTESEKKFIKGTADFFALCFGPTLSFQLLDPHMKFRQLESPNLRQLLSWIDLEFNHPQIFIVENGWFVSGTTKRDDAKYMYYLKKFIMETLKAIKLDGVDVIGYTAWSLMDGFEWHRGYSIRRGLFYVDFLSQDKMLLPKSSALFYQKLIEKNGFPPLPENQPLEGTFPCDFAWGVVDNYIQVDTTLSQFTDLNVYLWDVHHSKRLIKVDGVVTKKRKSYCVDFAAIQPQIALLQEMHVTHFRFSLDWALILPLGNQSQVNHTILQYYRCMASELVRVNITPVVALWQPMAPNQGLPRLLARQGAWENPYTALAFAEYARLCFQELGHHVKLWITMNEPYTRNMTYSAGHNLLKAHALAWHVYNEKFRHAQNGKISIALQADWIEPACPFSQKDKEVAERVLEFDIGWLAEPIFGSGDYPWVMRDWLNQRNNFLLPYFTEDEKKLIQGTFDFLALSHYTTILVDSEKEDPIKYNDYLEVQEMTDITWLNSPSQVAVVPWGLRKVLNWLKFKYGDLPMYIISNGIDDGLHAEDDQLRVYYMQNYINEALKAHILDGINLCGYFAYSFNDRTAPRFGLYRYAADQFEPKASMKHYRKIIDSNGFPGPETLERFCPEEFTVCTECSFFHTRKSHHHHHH
Method: (§1) Affinity estimates for each of the antibodies were determined by surface plasmon resonance (SPR). Fabs were immobilized using an anti-H+L antibody and serial dilutions of αKlotho were injected.

[2] = molecular target: T2, soluble human αKlotho (recombinant) (human, UniProt Q9UEF7 34-981); test: competitive Fab-phage ELISA, soluble human αKlotho against immobilised human αKlotho
T2 construct: also called Hu aKL; recombinant human αKlotho
T2 sequence (looked up): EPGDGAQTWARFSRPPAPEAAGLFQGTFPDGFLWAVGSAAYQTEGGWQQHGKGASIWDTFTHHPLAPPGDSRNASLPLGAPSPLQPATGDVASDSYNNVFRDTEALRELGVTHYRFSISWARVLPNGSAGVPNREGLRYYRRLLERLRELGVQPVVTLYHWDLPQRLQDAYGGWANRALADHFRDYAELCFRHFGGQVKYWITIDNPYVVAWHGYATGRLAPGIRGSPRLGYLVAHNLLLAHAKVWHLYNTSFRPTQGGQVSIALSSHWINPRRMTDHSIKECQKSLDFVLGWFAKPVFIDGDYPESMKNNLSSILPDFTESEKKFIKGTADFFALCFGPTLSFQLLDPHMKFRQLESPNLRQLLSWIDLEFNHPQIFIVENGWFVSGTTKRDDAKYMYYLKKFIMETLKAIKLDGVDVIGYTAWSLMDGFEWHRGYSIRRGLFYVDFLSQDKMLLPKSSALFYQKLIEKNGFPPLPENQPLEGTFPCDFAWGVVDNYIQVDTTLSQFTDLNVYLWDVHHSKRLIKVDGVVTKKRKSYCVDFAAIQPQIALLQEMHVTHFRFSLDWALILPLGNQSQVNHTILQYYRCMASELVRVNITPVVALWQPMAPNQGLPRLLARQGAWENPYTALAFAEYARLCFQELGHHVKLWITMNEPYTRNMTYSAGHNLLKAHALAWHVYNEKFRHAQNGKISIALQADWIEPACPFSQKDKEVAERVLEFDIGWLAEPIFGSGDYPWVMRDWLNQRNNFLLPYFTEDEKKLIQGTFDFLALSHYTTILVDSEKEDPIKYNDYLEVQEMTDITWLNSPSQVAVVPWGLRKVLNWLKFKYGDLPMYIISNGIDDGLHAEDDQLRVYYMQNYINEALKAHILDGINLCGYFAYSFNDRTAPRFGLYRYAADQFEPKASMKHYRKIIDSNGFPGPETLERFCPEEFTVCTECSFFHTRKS
Method: (A) CDR sequences and VH domain framework region residues variable in Library F for anti-αKlotho sb106, according to the IMGT (international ImMunoGeneTics database) numbering scheme. IMGT CDR residues are underlined, IMGT framework region residues are not underlined, residues at IMGT positions which were randomized in the selection library are bold. (B) Specificity determination of anti-αKlotho sb106 by Fab-phage ELISA: sb106 Fab-phage were incubated with the following immobilized antigens: a complex of FGFR1c/αKlotho complex (aKL-R1), FGFR1c alone (R1), human αKlotho (Hu aKL) and mouse αKlotho (Mu aKL), or neutravidin (NA) and bovine serum albumin (BSA) as negative controls. After washing off unbound phage, bound phages were detected using an HRP-conjugated anti-phage antibody. Colorimetric HRP reagents allow for absorbance readings at 450 nm. […] The binding signals to immobilized human αKlotho reported are an average of two data sets.
Binding selections, phage ELISAs and Fab protein purification were performed as described. Briefly, phage from library F were cycled through rounds of panning with the binary complex of αKlotho extracellular domain and FGFR1c ligand-binding domain on 96-well Maxisorp Immunoplates (Fisher Scientific, Nepean, ON, Canada) as the capture target. […]

[3] = molecular target: T1, extracellular domain (ECD) of human …; test: SPR, Fab captured by anti-H+L IgG, αKlotho injected at 50 to 6.25 ug/ml, Langmuir fit
Method: as §1

B1: sb106 Fab (Fab, V domains shown)
VH: EVQLVESGGGLVQPGGSLRLSCAASGFNISYYSIHWVRQAPGKGLEWVAYISPSYGYTSYADSVKGRFTISADTSKNTAYLQMNSLRAEDTAVYYCARYYVYASHGWAGYGMDYWGQGTLVTVSS
VL: DIQMTQSPSSLSASVGDRVTITCRASQSVSSAVAWYQQKPGKAPKLLIYSASSLYSGVPSRFSGSRSGTDFTLTISSLQPEDFATYYCQQAGYSPITFGQGTKVEIKR
notes: also called Fsb106; clone 48
Work on B1 yielded a Kd [1] of 1.9 nM, an IC50 [2] of 1.7 nM and a Kd [3] of 1.08 nM. It also gave a koff [3] of 0.000389 s⁻¹ and a kon [3] of 360000 M⁻¹ s⁻¹.
